Data as given in patent US20260240999A1, “METHODS FOR EX VIVO ENRICHMENT AND EXPANSION OF TUMOR REACTIVE T CELLS AND RELATED COMPOSITIONS THEREOF” (H. LEE MOFFITT CANCER CENTER AND RESEARCH INSTITUTE, INC., priority 2022, published 2026).

B1: IL-7: recombinant cytokine (protein, UniProt P13232 26-177, looked up)
Interleukin-7: DCDIEGKDGKQYESVLMVSIDQLLDSMKEIGSNCLNNEFNFFKRHICDANKEGMFLFRAARKLRQFLKMNSTGDFDLHLLKVSEGTTILLNCTGQVKGRKPAALGEAQPTKSLEENKSLKEQKKLNDLCFLKRLLQEIKTCWNKILMGTKEH
B2: IL-23: recombinant cytokine, P19 (SEQ ID NO: 1) and P40 (SEQ ID NO: 2) subunits (protein)
chain 1: RAVPGGSSPAWTQCQQLSQKLCTLAWSAHPLVGHMDLREEGDEETTNDVPHIQCGDGCDPQGLRDNSQFCLQRIHQGLIFYEKLLGSDIFTGEPSLLPDSPVGQLHASLLGLSQLLQPEGHHWETQQIPSLSPSQPWQRLLLRFKILRSLQAFVAVAARVFAHGAATLSP
chain 2: IWELKKDVYVVELDWYPDAPGEMVVLTCDTPEEDGITWTLDQSSEVLGSGKTLTIQVKEFGDAGQYTCHKGGEVLSHSLLLLHKKEDGIWSTDILKDQKEPKNKTFLRCEAKNYSGRFTCWWLTTISTDLTFSVKSSRGSSDPQGVTCGAATLSAERVRGDNKEYEYSVECQEDSACPAAEESLPIEVMVDAVHKLKYENYTSSFFIRDIIKPDPPKNLQLKPLKNSRQVEVSWEYPDTWSTPHSYFSLTFCVQVQGKSKREKKDRVFTDKTSATVICRKNASISVRAQDRYYSSSWSEWASVPCS
modifications: P19, UniProt Q9NPF7 20-189; P40, UniProt P29460 23-328
B3: IL-35: heterodimeric protein of p35 subunit from IL-12 and EBI3 (protein, UniProt P29459 23-219; Q14213 21-229, looked up)
Interleukin-12 subunit alpha: RNLPVATPDPGMFPCLHHSQNLLRAVSNMLQKARQTLEFYPCTSEEIDHEDITKDKTSTVEACLPLELTKNESCLNSRETSFITNGSCLASRKTSFMMALCLSSIYEDLKMYQVEFKTMNAKLLMDPKRQIFLDQNMLAVIDELMQALNFNSETVPQKSSLEEPDFYKTKIKLCILLHAFRIRAVTIDRVMSYLNAS
Interleukin-27 subunit beta: RKGPPAALTLPRVQCRASRYPIAVDCSWTLPPAPNSTSPVSFIATYRLGMAARGHSWPCLQQTPTSTSCTITDVQLFSMAPYVLNVTAVHPWGSSSSFVPFITEHIIKPDPPEGVRLSPLAERQLQVQWEPPGSWPFPEIFSLKYWIRYKRQGAARFHRVGPIEATSFILRAVRPRARYYVQVAAQDLTDYGELSDWSLPATATMSLGK
B4: IL-27: recombinant cytokine, heterodimer of IL27A (p28) and EBI3 (protein, UniProt Q8NEV9 29-243; Q14213 21-229, looked up)
Interleukin-27 subunit alpha: FPRPPGRPQLSLQELRREFTVSLHLARKLLSEVRGQAHRFAESHLPGVNLYLLPLGEQLPDVSLTFQAWRRLSDPERLCFISTTLQPFHALLGGLGTQGRWTNMERMQLWAMRLDLRDLQRHLRFQVLAAGFNLPEEEEEEEEEEEEERKGLLPGALGSALQGPAQVSWPQLLSTYRLLHSLELVLSRAVRELLLLSKAGHSVWPLGFPTLSPQP
Interleukin-27 subunit beta: B3 Interleukin-27 subunit beta

Key:
[1] = system: previously expanded human T cells from three healthy donors; experiment: Effect of T cell adjuvants on T cell viability (total viable CD3+ cell count); type: cell-based; conditions: 62.5 IU/ml-1000 IU/ml
Description: Cells were expanded from PBMC derived from Ficoll gradient separation from three healthy donor's apheresis material. […] Because the studies were carried out in healthy donors, stimulation of the T cells was carried out with anti-CD3 (OKT3) stimulation in order to mimic conditions present in the tumor microenvironment (TME).
Cells were next seeded into gas permeable 100M culture vessels and expanded for 7-14 days to achieve a large bank of T cells, and cryopreserved. […] Half of wells were additionally supplemented with 50 ng/mL OKT3, a human anti-CD3 monoclonal antibody. In total, 15 test adjuvant agents were tested for their impact on cell viability in the presence and absence of anti-CD3 activation (see Table E3). Cells were cultured for 6 days total, including a 50% medium exchange on culture day 3, and monitored for total viable CD3+ cell count.

[2] = system: previously expanded human T cells from three healthy donors; experiment: Cytokines, modulators and agonist antibodies with IL-2 on T cell number and memory phenotype; type: cell-based; conditions: for percent naïve and central memory T cells at Day 6: cytokine plus 300 IU/mL IL-2; for CD3+ cells/mL on Day 6: cytokine plus 300 IU/mL IL-2 vs IL-2 alone
Description: PBMC from three healthy donors were activated, expanded, and cryopreserved as described in Example 11. […] As previously described, stimulation of the healthy donor T cells prior to cryopreservation were carried out with anti-CD3 (OKT3) stimulation in order to mimic conditions present in the tumor microenvironment (TME).
Cells were next seeded into gas permeable 100M culture vessels and expanded for 7-14 days to achieve a large bank of T cells, and cryopreserved.
Cells were maintained in culture for 6 days, with a 50% medium exchange occurring at 3 days post culture initiation.
At the end of the culture period for all culture conditions, cells were assessed for cell count and sub-phenotypes of naïve and central memory T cells by flow cytometry by staining with CD45RA and CCR7 (naïve, CD45RA+ CCR7+; “central” memory, CD45RA-CCR7+).

[3] = at each of three tested concentrations (3.9, 250, and 1000 IU/mL)

| Molecule | dose response of cell number [1] | percent naïve and central memory T cells at Day 6 [2] | CD3+ cells/mL on Day 6 [2] | CD3+ cell number [2, 3] | percent naïve and central memory T cells [2, 3] |
| --- | --- | --- | --- | --- | --- |
| B1 | dose dependent response, wherein cell number increased with increasing concentration | measured increase in the percent naïve and central memory T cells | increase in CD3+ cells/mL on Day 6 | – | – |
| B2 | – | measured increase in the percent naïve and central memory T cells | increase in CD3+ cells/mL on Day 6 | – | – |
| B3 | – | measured increase in the percent naïve and central memory T cells | increase in CD3+ cells/mL on Day 6 | – | – |
| B4 | – | measured increase in the percent naïve and central memory T cells | increase in CD3+ cells/mL on Day 6 | significant increase in CD3+ cell number | significant increase in CD3+ cell number as well as percent naïve and central memory T cells |
